Data on 41 sequences can be found in the nanobody polyreactivity screen of Harvey et al. (2022).

The data set can be described thus: yeast display, Sf9 membrane polyspecificity reagent, FACS + sequencing; frameworks hold sequencing errors. In a few lines: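 Nanobodies from a synthetic yeast display library (Saccharomyces cerevisiae BJ5465), induced 36–48 hours with galactose, were stained 1 hour at 4 °C with 10% biotinylated, detergent-solubilized Sf9 membrane reagent, enriched on streptavidin microbeads, then FACS-sorted. Anti-HA (expression) and streptavidin (reagent binding) fluorescence set low and high (top ~1%) gates. Polyreactivity labels come from the gate of origin. Genes were colony-PCR amplified, MiSeq 2 × 250 sequenced and filtered by CDR length.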
Take “QVQLVESGGGLVQAGGSLRLSCAASGSTSRGYAMGWYRPAPGKERELVASITLSGGNTYYADSVKGRFTISRDSAKNTVYFQMYSLKPVDTAVYYCAADDRGSSYGHFTVEYGNWGQGTQVTVSS”: the “polyreactivity (PSR sort gate)” value was “low polyreactivity”.
With “QVQLVESGGGLFRAGGSLRLICAASGITFYGYAMGWYRQAPGKERELVAAITWSGGRTYYADSVKGRFTISRDNAKNTVYLQMNSMKPEDTAVYYCARRTWHSVGYWGQGTQVTVSS” the entry was “high polyreactivity”.
The value for “QVQLVESGGGLVQAGGSLRLSCAASGSTFADYVMGWYRQAPGKERELVAAISRSGGSTYYADSVKGRFTISRDNAKNTVYLQMNSLKPEDTAVYYCATDITPAISVEYDYWGQGTQVTVSS” was “high polyreactivity”.
As to “QVQLVESGGGLVQAGGSLRLSCAASGITFFDYAMGWYRQAPGKERELFAAIDLSDGRTYYADSVKGRFTISRDNAKNTVYLQMNSLKPEDTAVYYCNADSFLSWVYRYVYYGSGYWGQGTQVTVSS”, the “polyreactivity (PSR sort gate)” value is given as “low polyreactivity”.
“QVQLVESGGGLVQAGGSLRLSCAASGRIFTGNAMGWSRQAPGKERELVAAISASGSSSYYADSVKGRFTISRDNAKNTVYLQMNSLNPEDTAVYYCAAEGWYCYYYWGQGTQVTVSS”: the “polyreactivity (PSR sort gate)” value is reported as “high polyreactivity”.
The value for “QVQLVESGGGLVQAGGRLRLSCAASGSTVVFNAMGWYRQAPGKERELVAAISKSGGSTYYADSVKGRFTISRDNAKNTVYLQMNSLKPEDTAVYYCNRVSRKILDGDYDYWGQGTQVTVSS” was “high polyreactivity”; that for “QVQLGESGGGLVQAGGILRLSCAASGSIFARYAMGWYRQPPGKERELVAAISSNSASTYYADSVKGRFTISRDNAKNTVYLQMNCLIPEDTAVYYCATAYRSYWLNDYWGQGTQVTVSS” was “low polyreactivity”.
Turning to “QVQLVESGVGLVQAGGSLRLSCAASGIIFYDYVMGWYRPAPGKEWELVAAISRSGGSTYYADSVKGRFTISRDNAKNTVYLQMNSLKPEDTAVYYCAADTVVTEMEYCGQGTQVTVSS”, the “polyreactivity (PSR sort gate)” value was “high polyreactivity”.
With “QVQLVESGGGLVQAGGSLSLTCAASGITFPRNAMGWSRQAPGKERELVAAISARGGNTYYADSVKGRFTISRDNSKNTVYLQMNSLKPEDTAVYYCNALGSSYSEPSEYDYWGQGTQVTVSS” the entry was “low polyreactivity”; with “QVQLVESGGGLVQAGDSLRLSCAASGIILLSYAMGWYRQAPGKERELVAAITSGGGTNYADSVKGRFTISRDNAKNTVYLQMNSLKPEDTAVYYCAVGAYAGLYYYWGQGTQVTVSS”, “low polyreactivity”.
As to “QVQLGESGGGLVQAVGSLRLSCAASGITFGENAMGWSRQADGKERELVAAITSGGSTDYADSVKGRFTISRDNAKNSVYLQMYCLKPEDTAVYYWAAEAVAYYGSSYGYWGQGTQVTVSS”, the “polyreactivity (PSR sort gate)” value is “low polyreactivity”.
Consider “QVQLVESGGGLVQAGGSLRLTCAASGSIFGFNAMGWYRQAPGKERELGAAISSGSTYYADSVKGRFTISRDNAKNTVYLQINSLKPEDTAVYYCNARSNRGRFEYWGQGTQVTESS”, for which the “polyreactivity (PSR sort gate)” value is “low polyreactivity”.
With “QVQLVESGGGLVQAGGSLRLSCAASGRIFWYYAMGWYRQAPGKERELVARITSGGRTYYADSVKGRFTISRDNAKNTVYLQMNSLKPEDTAVYYCARRGRKAYGYWGQGTQVTVSS” the entry was “high polyreactivity”; with “QVQLVESGGGLVQAGGSLRLSCAASGRTFNTYAMGWYSQAPGKERELVAAISRRGGSTYYADSVKGRFTISRDNAKNTDYLQMNSLKPEDTAVYYCAAGNSVGLGWGQGTQVTVSS”, “high polyreactivity”.
The value for “QVQLVESGGGLVQAGGSLRLSCAASGFTFIRYAMGWYRQAPGKERELVATITRSGGSTYYADSVKGRFTISRDNAKNTVYLQMNSLKPEDTAVYYCAKRGTLGSYYYWGQGTQVTVSS” was “high polyreactivity”; that for “QVQLVESGGGLVQAGGSLRLSCAASGSTGWYDRGWYRQAPGKERELVASISSGDSTNYADSVKGRFTISRDNAKNTVYLQMNSLKPEDTAVYYCAADFNVGFVWGDDYDYWGQGTQVTVSS” was “low polyreactivity”.
The value for “QVHLVESGGGLVQAGGSLRLSCAASGSIFRIYAMGWYRQAPGKERELVAAINAGGGRTYYADSVKGRFTISRDNAKNTVYLQMNSLKPEDNAVYFCAARHTEYRQESLYYWGQGTQVTVSS” was “low polyreactivity”; that for “QVQLVESGGGLVQAGGSLRLSCAASGSIFSVYARGWSRQAPGKERELVAAITSGTSTYADSVKGRFTISRDNAKNTVYLQMNSLKPEDTAVYACAAESGSPGYYYWGQGTQVTVSS” was “low polyreactivity”; that for “QFQLVESGGGLVQAGGSLRLSCAASGSIFYRYAMGSDRQAPGKERELVAAISTGGGSTKYADSVKGRFTISRHNAKNTVYLQMNSLKPEDTAVYYCAASRAVTQYSGGGYGGQGTQVTVSS” was “high polyreactivity”.
“QVQLVESGGGLVQAGGSLRLSCAASGRLFYQYAMGWSRQAPGKERELVAAISRSGGSTSYADSVKGRFTISRDNAKNTVYLQMNSLKPEDTAVYYCNARRWWDFQGYDYWGQGTQVTVSS”: the “polyreactivity (PSR sort gate)” value is “high polyreactivity”.
As for “QDQLVETGGGLVQAGGSLRLSCAASGSTFWGNAMGWYRQAPGKESELVAAISTSDTSTYYADSVKGRFTISRDNAKNTVYLQMNSLKPEDTAVYYCAAEWYYGEKYDYWGQGTQVTVSS”, the “polyreactivity (PSR sort gate)” value is “low polyreactivity”.
In the case of “QVQHVESGGGLVQAGGSLRLSCAASGRIFAFYAMGWYRQAPGKEREFVAAITWSGTNTYYADSVKGRFTISRDNAKNTVYLQMNSLKPEDTAVYYCNARQYYKYGYWGQGTQVTVSS”, the “polyreactivity (PSR sort gate)” value is “high polyreactivity”.
Take “QVQLVESGGGLVQAGGSLRLSCAASGYIFAYTAMGWYRQAPGKEREFVAVITRSDDSTYADSVKGRFTISRDNAKNTVYLQMNSLKPEDTAVYYCAAQPFVIDGGYRGDYWGQGTQVTVSS”: the “polyreactivity (PSR sort gate)” value is reported as “low polyreactivity”.
The value for “QVQLVESGGGLVQAGGSLRISCAASGSIFDYYVMGWYRQATGKERELVAAISWSGASTYYADSVKGRCTISRDNAKNTVYLQMNSLKREDTAVYYCAAYYGVNNLIDYDYWGQGTQVTVSS” was “low polyreactivity”; that for “QVQLVESGGGLVQAGGSLRLSCAASGRTFVVYAMGWYRQAPGKERELVAVISFTGDSTFYADSVKGRFTISRDNAKNTVYLQMNSLKPEDTAVYYCAADFRRVFSKYSYYLYFDFDYWGQGSQVTVSS” was “low polyreactivity”.
Regarding “QVQLVESGGGLVQAGGSLRLSCAASGRTFSRNAMGWYRQAPGKERELVAAISQRGVSTYYADSVKGRFTISRDNAKNTVYLQMNSLKPEDTAVYYCNTRGTYRYDYWGQGTQVTVSS”, the “polyreactivity (PSR sort gate)” value is listed as “low polyreactivity”.
Turning to “QVQLVESGGGLVQAGGSLRLSCAASGGIFGTNDLGWSRQAPGKERELVAAITSDSGSTYYADSVKGRFTISRDNAKNTVYLQMTSLKPEDTAVYYCAAEDGPWFYRYGYWGQGTQVTVSS”, the “polyreactivity (PSR sort gate)” value is on record as “low polyreactivity”.
With “QVQLVESGGGLVQAGGSLRLSCAASGSTFSPYAMGWYRQAPGKERELVANITISGGSTYYADSVKGRFTISRDNAKNTVYLQMNSLKPEDTAVYYCNADSLIRWLFTVVIFDYWGQGTEVTVSS” the entry was “low polyreactivity”.
The value for “QVQLVESGAGLVQAGGSLGLSCAASGSNFIYNAMGLYRQAPGKERELVAAITDRSTKYADSVKGRFTISRDNAKYSGYVQMNSLKTEDTAVYYSNAYVWRWRYDSWGQVTQVTVSS” was “low polyreactivity”; that for “QVQLVESGGGLVQAGGSLRLSCAASGRIFRQYAMGLYRQAPGKERELVAAISRRGTSTYYADSVKGRFTISRDNAKNTVYLQMNSLKPEDTAVYYCAAGGVYSIYRTSRVGYDYWGQGTQVTVSS” was “high polyreactivity”.
Consider “QVQLVESGGGLVQAGGSLRLSCAASGSTFNGYAMGWYRQAPGKERELVAAISWRGGSTYYADSVKGRFTISRDNAKNTVYLQMNSLKPEDTAVYYCNTLLYYGHRYYYWGQGTQVTVSS”, for which the “polyreactivity (PSR sort gate)” value is “high polyreactivity”.
The value for “QVQLVESGGGLVQAGGSLRLSCAASGRIFSRYAMGWYRQAPGKERELVATISSGGGTYYADSVKGRFTISRDNAKNTVYLQMNSLKPEDTAVYYCAVQVWYGRYYYWGQGTQVTVSS” was “high polyreactivity”.
With “QVQLVESGGGLVQAGGSLRLSCAASGSTSLSYVKGWYRQAPGKERELVATITSSGGSTYYADSVKGRFTISRDNAKNTDYLQMNSLKQEDPAVYYCNARSYIYPFSPTSYYRYYWGQGTQVTGSS”, the “polyreactivity (PSR sort gate)” value is listed as “high polyreactivity”.
In the case of “QVQLVESGGGLVQAGGSLRLSCAASGYTFYIYAMGWSRQAPGKERELVATISSSGGGTYYADSVKGRFTISRDNAKNTVYFQMYSQKPEDTAVYDCNAAGWYWQAEGYDYWGQGTQVTVSS”, the “polyreactivity (PSR sort gate)” value is recorded as “low polyreactivity”.
With “LVQLQESGGGLVQAGGSLRLSCAASGTISPGGYMGWYRQAPGKERELVASINVGGSTNYADSVKGRFTISRDNAKNTVYLQMKSLKPEDNAVYYCAVWGRNRLQLSYWGQGTQVTVSS” the entry was “low polyreactivity”.
Consider “QVQLVESGGGLVQAGGSLRLSCAASGRIFRYYDMGWYRPAPGKERELVAAINSGGSTKYADSVKGRFTISRDNAKNTVYLQMNSLKPEDTAVYYCAADKARAWGYDYWGQGTQVTVSS”, for which the “polyreactivity (PSR sort gate)” value is on record as “high polyreactivity”.
Take “EEQLVESGGGLVQPGGSLRLSCAASVYIYSRYRMGWYRQAPGKGREFVAAISGGSSPNYADCVKGRFTISRDNSKNTVYLQMNSLRAEDTAVYYCAAYKIDSDPRVYWGQGTQVTVSS”: the “polyreactivity (PSR sort gate)” value is reported as “low polyreactivity”.
The value for “QVQLVESGGGLVQAGGSLRLSCAASGLIFYRYAMGWYRQAPGTERELVAVITRSGCNTNYADSVKGRFTISRDNAKNTVYLQMNSLKPEDTEVYYCDTRGIWKKVPYYYWGQGTQVTVSS” was “low polyreactivity”; that for “QVQLLESGGGLDQSGGSLRLSCAASGRIFTFNAMGWYRQAPGQERELVAAIRFRDGSTYYADSVKGRFTISRDNAKNNGYLQMYSLKPEDTAVYYSAATAYPWPYYYWGQGTQVTVSS” was “high polyreactivity”; that for “QVQLLESGGGIVQAGGSLRLSCVASGFTISVYAMVWYRHAPGKERELVAAISRVGSSNYADSVKGRFTISRDNAKNTVYLHMISLKTEDTSVYYCNAVLRHTWVSRGYGSWGQGTQVSVSS” was “high polyreactivity”.
The value for “QVQLVESGGGLVQAGGSLRLSCAASGSTFLTYAMGWYRQAPGKERELVAAISIAGSTYYADSVKGRFTISRDNAKNTVYLQMNSLKPEDTAVYYCAADIFERGPVPDRHNGYDYWRQGTQVTVSS” was “low polyreactivity”.
